Source: paper PMC12151148

Legend:
FL-LGN (mouse) = test: ITC; 25°C; 50 mM Tris (pH 8.0), 100 mM NaCl, 1 mM EDTA; one protein (0.2 mM) injected into another (0.02 mM); one-site binding model
FL-AGS3 (mouse) = test: as above
[1] = molecular target: LGN-GL1234 (483–650) (mouse); test: as above
AGS3-TPR (1–405) (mouse) = test: ITC; 25°C; 50 mM Tris (pH 8.0), NaCl raised to 300 mM for AGS3-TPR or AGS3-L, 1 mM EDTA; one protein (0.2 mM) injected into another (0.02 mM); one-site binding model

Gαi3⋅GDP, sequence (P08754 whole entry): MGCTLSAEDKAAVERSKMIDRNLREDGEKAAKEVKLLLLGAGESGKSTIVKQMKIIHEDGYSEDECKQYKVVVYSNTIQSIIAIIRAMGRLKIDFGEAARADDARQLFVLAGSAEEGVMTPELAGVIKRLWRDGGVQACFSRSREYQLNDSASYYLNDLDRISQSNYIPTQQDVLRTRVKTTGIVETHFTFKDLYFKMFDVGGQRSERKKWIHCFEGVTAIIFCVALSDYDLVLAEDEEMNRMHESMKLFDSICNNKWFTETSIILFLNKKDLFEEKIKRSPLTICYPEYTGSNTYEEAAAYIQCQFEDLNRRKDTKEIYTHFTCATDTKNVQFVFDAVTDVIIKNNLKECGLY

Work on “Gαi3⋅GDP (from UniProt P08754 1-354) (natural protein)” yielded a Kd (FL-LGN (mouse)) of 1170 nM, a Kd (FL-AGS3 (mouse)) of 1600 nM and a stoichiometry N (Gαi3⋅GDP per GoLoco domain) [1] of 4.
For “AGS3-GL1234 (470–631) (domain or fragment)”, the Kd (AGS3-TPR (1–405) (mouse)) was 170 nM.
